Results on three molecules are retold here after paper PMC4182837, “BosR Functions as a Repressor of the ospAB Operon in Borrelia burgdorferi”.

The chains are these.
B1: cisII probe (dsDNA)
DNA 1: TGTTATTTGTTAATCTTATAATATAATTATACTTGTATTAAGTTATATTAATATAAAAGGAGAATATATT
DNA 2: AATATATTCTCCTTTTATATTAATATAACTTAATACAAGTATAATTATATTATAAGATTAACAAATAACA
B2: IRs probe (ospC operator) (dsDNA)
DNA 1: CAATATTTTTCAAATTCTTCAATATTTATTCAAGATATTGAAGAATTTGAAAAAATTATTTTTTCAAATA
DNA 2: TATTTGAAAAAATAATTTTTTCAAATTCTTCAATATCTTGAATAAATATTGAAGAATTTGAAAAATATTG
B3: cisI probe (dsDNA)
DNA 1: TAATTAGAACCAAACTTAATTAAAACCAAACTTAATTGAAGTTATTATCATTTTATTTTTTTTCAATTTT
DNA 2: AAAATTGAAAAAAAATAAAATGATAATAACTTCAATTAAGTTTGGTTTTAATTAAGTTTGGTTCTAATTA

The target in this data set is BosR (Borrelia burgdorferi B31, UniProt O51592 1-176). In words: EMSA; 400 nM BosR, 1 nM probe, 50 ug/ml salmon sperm DNA. To be noted: protein: recombinant; tags: C-terminal His6 (pET-23a); chain copies: 2; label: 5' digoxigenin on one strand.
In the case of B1, the binding result is recorded as “binds”.

Consider B2, for which the binding result is given as “no binding”.

In the case of B3, the binding result is “binds”.
